Reference: patent US20250281587A1 (ELANCO US, published 2025)

Target: T1, recombinant mouse IL-1RI Fc chimera (R&D 771-MR-100) (mouse, UniProt P13504 20-338)
T1 construct: Coated on ELISA plates at 1 µg/ml; Used instead of canine or feline IL-1RI, which were not commercially available; also called IL-1RI receptor; Fc part of the bought chimera not given
T1 sequence (looked up): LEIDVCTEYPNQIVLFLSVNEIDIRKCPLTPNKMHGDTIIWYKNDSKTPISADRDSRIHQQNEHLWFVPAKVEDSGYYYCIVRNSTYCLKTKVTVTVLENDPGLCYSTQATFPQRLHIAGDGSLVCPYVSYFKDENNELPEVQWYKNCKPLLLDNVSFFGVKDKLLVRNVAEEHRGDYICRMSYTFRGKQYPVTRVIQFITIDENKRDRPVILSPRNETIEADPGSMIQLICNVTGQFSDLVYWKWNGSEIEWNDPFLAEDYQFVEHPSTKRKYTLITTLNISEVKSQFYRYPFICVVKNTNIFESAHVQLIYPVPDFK
Test: ELISA, mouse IL-1RI Fc chimera coated, detection with biotinylated anti-fIL-1β antibody

B1: purified feline IL-1β wild type (ligand)
chain: MGSAAIQSQDYTFRDISQKSLVLSGSYELRALHLNGQNMNQQVVFRMSFVHGEENSKKIPVVLCIKKNNLYLSCVMKDGKPTLQLEMLDPKVYPKKKMEKRFVFNKTEIKGNVEFESSQFPNWYISTSQAEEMPVFLGNTKGGQDITDFIMESASTSHHHHHHGGCG
notes: also called purified wild type feline IL-1β; recombinant feline wild type IL-1β
**Q.** Does B1 bind?
**A.** binds
